Patent US20200230173A1 (US Dept. of Health and Human Services, published 2020)

Biological target: T1, human TNFR2-Fc fusion protein (human, UniProt P20333 23-257)
T1 construct: not shown: Fc part
T1 sequence (looked up): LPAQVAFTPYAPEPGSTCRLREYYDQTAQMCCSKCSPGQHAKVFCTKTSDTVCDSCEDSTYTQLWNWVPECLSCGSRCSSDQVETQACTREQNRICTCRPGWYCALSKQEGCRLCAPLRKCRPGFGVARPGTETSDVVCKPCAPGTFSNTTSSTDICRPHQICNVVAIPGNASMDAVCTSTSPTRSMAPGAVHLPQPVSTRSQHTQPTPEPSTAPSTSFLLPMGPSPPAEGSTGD
Assay: selection from a phage display scFv library on human TNFR2-Fc

B1: human TNFR2-specific monoclonal antibody E4 (antibody, V domains shown)
VH: QITLKESGPTLVKPTQTLTLTCTFSGFSLTTSGVGVGWIRQPPGKALEWLALIYWDDDKRYSPSLKSRLTITKDTSKNQVVLTMTNMDPVDTATYYCAHLDGSGSLDYWGQGTLVTVSS
VL: QSVLTQPPSASGTPGQRVTISCSGSTSNIGRNSVNWYSHLPGAAPKLLISGNDQRPSGVPDRFSGSKSDNTASLTVSGLQAEDEAHYYCSSSAANLGVFGGGTKLTVLG
Question: Does B1 bind?
Answer: Result: binds
